# Measurements taken from patent US20070212705.
# Like-named read-outs stand apart in the source and are kept apart here.
# T1: Tetrapeptide Lys substrate L-Ala-γ-D-Glu-L-Lys-D-Ala
# T1 chain: AEKA
# B1: E. coli LDC protein (muramoyl-tetrapeptide carboxypeptidase P76008) (protein)
# chain: MSLFHLIAPSGYCIKQHAALRGIQRLTDAGHQVNNVEVIARRCERFAGTETERLEDLNSLARLTTPNTIVLAVRGGYGASRLLADIDWQALVARQQHDPLLICGHSDFTAIQCGLLAHGNVITFSGPMLVANFGADELNAFTEHHFWLALRNETFTIEWQGEGPTCRAEGTLWGGNLAMLISLIGTPWMPKIENGILVLEDINEHPFRVERMLLQLYHAGILPRQKAIILGSFSGSTPNDYDAGYNLESVYAFLRSRLSIPLITGLDFGHEQRTVTLPLGAHAILNNTREGTQLTISGHPVLKM
# B2: P. aeruginosa L-D carboxypeptidase A (PA LDC), N-terminal his-tagged, expressed from pET14b in E. coli BL21 (protein)
# chain: MTSRPSSDQTWQPIDGRVALIAPASAIATDVLEATLRQLEVHGVDYHLGRHVEARYRYLAGTVEQRLEDLHNAFDMPDITAVWCLRGGYGCGQLLPGLDWGRLQAASPRPLIGFSDISVLLSAFHRHGLPAIHGPVATGLGLSPLSAPREQQERLASLASVSRLLAGIDHELPVQHLGGHKQRVEGALIGGNLTALACMAGTLGGLHAPAGSILVLEDVGEPYYRLERSLWQLLESIDARQLGAICLGSFTDCPRKEVAHSLERIFGEYAAAIEVPLYHHLPSGHGAQNRAWPYGKTAVLEGNRLRW
# Target: T1, Tetrapeptide Lys substrate …
protein,measurement,setting,value
B1,"cleavage of tetrapeptide substrate (RFU, Amplex Red detection of D-alanine released)",,illustrates the cleavage of a tetrapeptide substrate (L-Ala-γ-D-Glu-L-Lys-D-Ala) by E. coli LDC (squares)
B2,cleavage of tetrapeptide substrate,,express a functional PA LDC protein that cleaved a tetrapeptide substrate in a dose dependent manner
same,"cleavage of tetrapeptide substrate (RFU, Amplex Red detection of D-alanine released)",scale: fold lower specific activity compared to E. coli LDC,2
